# Assay results as given in PMC7721913 (The Journal of Cell Biology, 2020).
# B1: KLC1 or its C-terminal mutant (ΔTail) (protein, UniProt P37285 1-560, looked up)
# Kinesin light chain 1: MHDNMSTMVYMKEEKLEKLTQDEIISKTKQVIQGLEALKNEHNSILQSLLETLKCLKKDDESNLVEEKSSMIRKSLEMLELGLSEAQVMMALSNHLNAVESEKQKLRAQVRRLCQENQWLRDELANTQQKLQKSEQSVAQLEEEKKHLEFMNQLKKYDDDISPSEDKDSDSSKEPLDDLFPNDEDDPGQGIQQQHSSAAAAAQQGGYEIPARLRTLHNLVIQYASQGRYEVAVPLCKQALEDLEKTSGHDHPDVATMLNILALVYRDQNKYKDAANLLNDALAIREKTLGRDHPAVAATLNNLAVLYGKRGKYKEAEPLCKRALEIREKVLGKDHPDVAKQLNNLALLCQNQGKYEEVEYYYQRALEIYQTKLGPDDPNVAKTKNNLASCYLKQGKFKQAETLYKEILTRAHEREFGSVDDENKPIWMHAEEREECKGKQKDGSSFGEYGGWYKACKVDSPTVTTTLKNLGALYRRQGKFEAAETLEEAALRSRKQGLDNVHKQRVAEVLNDPENVEKRRSRESLNVDVVKYESGPDGGEEVSMSVEWNGMRKMKLGLVK
# modifications: or C-terminal tail deletion mutant
# B2: KIF5A^R280H: KIF5A mutant associated with CMT2 (protein)
# chain: MAETNNECSIKVLCRFRPLNQAEILRGDKFIPIFQGDDSVIIGGKPYVFDRVFPPNTTQEQVYHACAMQIVKDVLAGYNGTIFAYGQTSSGKTHTMEGKLHDPQLMGIIPRIARDIFNHIYSMDENLEFHIKVSYFEIYLDKIRDLLDVTKTNLSVHEDKNRVPFVKGCTERFVSSPEEILDVIDEGKSNRHVAVTNMNEHSSRSHSIFLINIKQENVETEQKLSGKLYLVDLAGSEKVSKTGAEGAVLDEAKNINKSLSALGNVISALAEGTKSYVPYHDSKMTRILQDSLGGNCRTTMFICCSPSSYNDAETKSTLMFGQRAKTIKNTASVNLELTAEQWKKKYEKEKEKTKAQKETIAKLEAELSRWRNGENVPETERLAGEDSALGAELCEETPVNDNSSIVVRIAPEERQKYEEEIRRLYKQLDDKDDEINQQSQLIEKLKQQMLDQEELLVSTRGDNEKVQRELSHLQSENDAAKDEVKEVLQALEELAVNYDQKSQEVEEKSQQNQLLVDELSQKVATMLSLESELQRLQEVSGHQRKRIAEVLNGLMRDLSEFSVIVGNGEIKLPVEISGAIEEEFTVARLYISKIKSEVKSVVKRCRQLENLQVECHRKMEVTGRELSSCQLLISQHEAKIRSLTEYMQTVELKKRHLEESYDSLSDELARLQAHETVHEVALKDKEPDTQDAEEVKKALELQMENHREAHHRQLARLRDEINEKQKTIDELKDLNQKLQLELEKLQADYERLKNEENEKSAKLQELTFLYERHEQSKQDLKGLEETVARELQTLHNLRKLFVQDVTTRVKKSAEMEPEDSGGIHSQKQKISFLENNLEQLTKVHKQLVRDNADLRCELPKLEKRLRATAERVKALEGALKEAKEGAMKDKRRYQQEVDRIKEAVRYKSSGKRGHSAQIAKPVRPGHYPASSPTNPYGTRSPECISYTNNLFQNYQNLHLQAAPSSTSDMYFASSGATSVAPLASYQKANMDNGNATDINDNRSDLPCGYEAEDQAKLFPLHQETAAS
# modifications: left off: FLAG, N-terminal, kept
# B3: KIF5B: kinesin heavy chain KIF5B (protein, UniProt P33176 2-963, looked up)
# Kinesin-1 heavy chain: ADLAECNIKVMCRFRPLNESEVNRGDKYIAKFQGEDTVVIASKPYAFDRVFQSSTSQEQVYNDCAKKIVKDVLEGYNGTIFAYGQTSSGKTHTMEGKLHDPEGMGIIPRIVQDIFNYIYSMDENLEFHIKVSYFEIYLDKIRDLLDVSKTNLSVHEDKNRVPYVKGCTERFVCSPDEVMDTIDEGKSNRHVAVTNMNEHSSRSHSIFLINVKQENTQTEQKLSGKLYLVDLAGSEKVSKTGAEGAVLDEAKNINKSLSALGNVISALAEGSTYVPYRDSKMTRILQDSLGGNCRTTIVICCSPSSYNESETKSTLLFGQRAKTIKNTVCVNVELTAEQWKKKYEKEKEKNKILRNTIQWLENELNRWRNGETVPIDEQFDKEKANLEAFTVDKDITLTNDKPATAIGVIGNFTDAERRKCEEEIAKLYKQLDDKDEEINQQSQLVEKLKTQMLDQEELLASTRRDQDNMQAELNRLQAENDASKEEVKEVLQALEELAVNYDQKSQEVEDKTKEYELLSDELNQKSATLASIDAELQKLKEMTNHQKKRAAEMMASLLKDLAEIGIAVGNNDVKQPEGTGMIDEEFTVARLYISKMKSEVKTMVKRCKQLESTQTESNKKMEENEKELAACQLRISQHEAKIKSLTEYLQNVEQKKRQLEESVDALSEELVQLRAQEKVHEMEKEHLNKVQTANEVKQAVEQQIQSHRETHQKQISSLRDEVEAKAKLITDLQDQNQKMMLEQERLRVEHEKLKATDQEKSRKLHELTVMQDRREQARQDLKGLEETVAKELQTLHNLRKLFVQDLATRVKKSAEIDSDDTGGSAAQKQKISFLENNLEQLTKVHKQLVRDNADLRCELPKLEKRLRATAERVKALESALKEAKENASRDRKRYQQEVDRIKEAVRSKNMARRGHSAQIAKPIRPGQHPAASPTHPSAIRGGGAFVQNSQPVAVRGGGGKQV
# Columns and labels:
# [1] = tested on: HA-SFPQ; assay: Coimmunoprecipitation of HA-SFPQ with KLC1/KIF5A constructs in HEK 293T cells
# [2] = tested on: bclw and β actin mRNA in DRG neurons; assay: Quantitative RT-PCR of mRNA in cell bodies and distal axons; assay type: cell-based, rat; settings: vs WT control; normalized to gapdh; 3 independent experiments
# [3] = tested on: mitochondria in axons of DRG neurons; assay: Mitochondrial transport assay; assay type: cell-based, rat; settings: vs control; ∼115 mitochondria, 10 axons, three experiments
# [4] = tested on: CB and distal axon compartments of DRG neurons; assay: Western blot of KIF5 and KLC in cell body and distal axon lysates; assay type: cell-based, rat; settings: Campenot CB vs distal axon lysates
# [5] = tested on: DRG neurons; DRGs and sciatic nerve of P1 mice; assay: Immunostaining of KIF5s in DRG neurons, DRGs and sciatic nerve; parameters: species or system rat; mouse; settings: microfluidic DRG neurons, DRGs and sciatic nerves in vivo
molecule,measurement,setting,value
B1,reduction of binding to SFPQ,"[1]; Myc-KLC1 without C-terminal region vs WT, n = 4, P = 0.0033",~50%
B2,axonal bclw mRNA level (in words),[2],significantly decreased
same,axonal β actin mRNA level (in words),[2],not affected
same,mitochondria transport (in words),[3],did not alter mitochondria transport
same,reduction in binding to SFPQ,"[1]; KIF5A^R280H vs WT KIF5A, n = 7, P = 0.0019",~50%
B3,compartment localization (in words),[4],preferentially localizes in the CB compartment
same,axonal localization of KIF5B by immunostaining (in words),[5],largely excluded from axons
